In publication PMC3180432:

Assays:
[1] = molecular target: B7.1-Fc (mouse) (UniProt Q00609); assay: SPR; BIAcore 2000, CM5 chip, ligand immobilised by amine coupling, analyte protein injected at different molarities at 10 uL/min, HBS (0.01 M Hepes pH 7.4, 0.15 M NaCl, 0.005% P20), 25°C
[2] = molecular target: B7-H1-Fc (mouse) (UniProt Q9EP73); assay: as above

Substance	Kd [1]	Kd [2]
B7-H1-Fc (from UniProt Q9EP73 19-239) (Fc fusion)	1070 nM	
B7.1-Fc (from UniProt Q00609 38-246) (Fc fusion)		380 nM
PD-1-Fc (from UniProt Q02242 25-169) (Fc fusion)		820 nM
